B1: recombinant Fab protein of antibody No. 2 (Fab, V domains shown)
VH: EVQLVESGGGVVQPGRSLRLSCAASGFKFSKFAMHWVRQAPGKGPEWVAVISYDGNQYHSADSVKGRFTISRDNSFNTLYLQMNSLGPEDTAVYYCARDGPDTSGYYANIYFDFWGQGTLVTVSS
VL: QSVLTQPPSVSGAPGQRVTISCTGSSSNIGAGYDVHWYQQLPGRAPKLLIFDNNNRPSGVPDRFSGSKSGTSASLAITGLQTEDEAYYYCQSYDNSLILAVFGGGTKVTVL
B2: recombinant Fab protein of antibody No. 5 (Fab, V domains shown)
VH: EVQLVESGGGLVQPGGSLRLSCAASGFTFYSYWMTWVRQAPGKGLEWVANIKHDESESHYVDSVRGRFTISRDNAKNSVYLQMKGLRAEDTAVYYCARDGGYNILTAYYHAPSYWGQGTLVTVSS
VL: QSALTQPASVSGSPGQSITISCTGTSSDVGGYNFVSWYRQYPGKAPQLMIYDVSRRPSGDSDRFSGSKSGNTASLTISGLQAEDEAEYHCSSYTGRSPYVVFGGGTKVTVL
B3: recombinant Fab protein of antibody No. 6 (Fab, V domains shown)
VH: QVQLVQSGPEVKKPGTSVKVSCKASGFTFYYSAVQWVRQARGQRLEWLGWMAVGSGKANYAQKFQERLTLTRDMSTSTAYMELSSLRSEDTAVYYCAAPNCTGGSCYDGFNLWGQGTVVTVSS
VL: EIVLTQSPGTLSLSPGDRAILSCRASQTVNSNYLAWYQQKPGQAPRLLIYGTSSRATGIPDRFSGSGSGTDFTLTISRLEPEDFAVYYCQQYGSSPWLFGQGTKVEIK
B4: recombinant Fab protein of antibody No. 7 (Fab, V domains shown)
VH: EVQLLESGGGLVQPGGSLRLSCAASGFTFSRYALSWVRQAPGKGLEWVSAISGAAITTYYADSVKGRFTISRDDSRNTLFMQMDSLRAEDTAVYYCAKGDYYDSSGYLAEYFPHWGQGTLVTVSS
VL: SYELTQPPSVSVSPGQTARITCFADALPKQHAYWYQQKAGQAPVLVIFKDTERPSGIPKRFSGSRSGATVTLTISGVQAEDEADYYCQSTDISGVLFGGGTKLTVL

Each binder was assayed against Delta strain RBD, biotinylated (SARS-CoV-2 (Delta strain), UniProt P0DTC2 331-529) (assay: BLI (Octet), biotinylated RBD on streptavidin biosensor, Fab in solution).
B1 gave a Kd of at most 100 nM.
B2 showed a Kd of at most 100 nM.
In the case of B3, the Kd is reported as at most 100 nM.
Binder B4 has a Kd of at most 100 nM.

What follows are binders tested against Omicron strain (BA.1) RBD, biotinylated (SARS-CoV-2 (Omicron strain BA.1), UniProt P0DTC2 331-529) in the same assay as above.
B1 gave a Kd of at most 100 nM.
Work on B2 yielded a Kd of at most 100 nM.
B3 was tested, and the Kd was at most 100 nM.
With B4 the Kd was at most 100 nM.

These binders were tested against Omicron strain (BA.2) RBD, biotinylated (SARS-CoV-2 (Omicron strain BA.2), UniProt P0DTC2 331-529) in the same assay as above.
In the case of B1, the Kd is reported as at most 100 nM.
Binder B2 has a Kd of at most 100 nM.
In the case of B3, the Kd is reported as at most 100 nM.
With B4 the Kd was at most 100 nM.

— patent WO2024019110A1 (dated 2024)
